Results published in patent US20110059051A1.

Molecular target: Gal4-DNA binding domain fusion with PGC-1α (yeast) (UniProt P04386)
Assay: cell-based or functional assay

transactivation of the UAS-Firefly Luciferase reporter by gal4-pgc1α: 200 fold
Substance: PRDM16 expressed from pcDNA-Prdm16 plasmid in cos7 cells (from UniProt A2A935 1-1275)
